Measured values published in patent publication US20210030804A1.

Target: CD19 on Nalm6 leukemia cells (UniProt P15391)
Assay: cell-based or functional assay

UniProt P15391, sequence (P15391 20-556 limits assumed): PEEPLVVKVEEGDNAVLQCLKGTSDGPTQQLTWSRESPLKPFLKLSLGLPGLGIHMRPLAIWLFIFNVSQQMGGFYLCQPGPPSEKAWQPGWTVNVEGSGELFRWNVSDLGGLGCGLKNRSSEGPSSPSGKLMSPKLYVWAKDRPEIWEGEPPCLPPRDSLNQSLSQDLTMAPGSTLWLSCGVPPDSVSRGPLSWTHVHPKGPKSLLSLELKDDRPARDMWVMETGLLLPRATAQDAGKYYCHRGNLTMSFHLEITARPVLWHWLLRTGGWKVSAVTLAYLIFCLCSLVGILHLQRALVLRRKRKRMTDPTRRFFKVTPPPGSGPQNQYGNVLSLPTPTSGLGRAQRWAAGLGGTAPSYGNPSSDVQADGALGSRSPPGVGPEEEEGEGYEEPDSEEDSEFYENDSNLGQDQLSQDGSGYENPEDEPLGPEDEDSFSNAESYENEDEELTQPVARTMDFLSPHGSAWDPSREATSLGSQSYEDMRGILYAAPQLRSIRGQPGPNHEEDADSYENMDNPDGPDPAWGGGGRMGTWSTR

B1: CD19 CAR (receptor, from a related filing)
chain: EVKLQQSGAELVRPGSSVKISCKASGYAFSSYWMNWVKQRPGQGLEWIGQIYPGDGDTNYNGKFKGQATLTADKSSSTAYMQLSGLTSEDSAVYFCARKTISSVVDFYFDYWGQGTTVTVSSGGGGSGGGGSGGGGSDIELTQSPKFMSTSVGDRVSVTCKASQNVGTNVAWYQQKPGQSPKPLIYSATYRNSGVPDRFTGSGSGTDFTLTITNVQSKDLADYFCQQYNRYPYTSGGGTKLEIKRAAAIEVMYPPPYLDNEKSNGTIIHVKGKHLCPSPLFPGPSKPFWVLVVVGGVLACYSLLVTVAFIIFWVRSKRSRLLHSDYMNMTPRRPGPTRKHYQPYAPPRDFAAYRSRVKFSRSADAPAYQQGQNQLYNELNLGRREEYDVLDKRRGRDPEMGGKPRRKNPQEGLYNELQKDKMAEAYSEIGMKGERRRGKGHDGLYQGLSTATKDTYDALHMQALPPR
Tumor Cell Killing Percentage (Nalm6 killed, 22 h co-culture, FACS with counting beads); E/T 0.024; CD19 level high: 32%
Tumor Cell Killing Percentage (Nalm6 killed, 22 h co-culture, FACS with counting beads); E/T 0.024; CD19 level low: 16.3%
Tumor Cell Killing Percentage (Nalm6 killed, 22 h co-culture, FACS with counting beads); E/T 0.024; CD19 level medium: 17.2%
Tumor Cell Killing Percentage (Nalm6 killed, 22 h co-culture, FACS with counting beads); E/T 0.024; CD19 level very low: 0%
Tumor Cell Killing Percentage (Nalm6 killed, 22 h co-culture, FACS with counting beads); E/T 0.12; CD19 level high: 63.4%
Tumor Cell Killing Percentage (Nalm6 killed, 22 h co-culture, FACS with counting beads); E/T 0.12; CD19 level low: 53.3%
Tumor Cell Killing Percentage (Nalm6 killed, 22 h co-culture, FACS with counting beads); E/T 0.12; CD19 level medium: 63.6%
Tumor Cell Killing Percentage (Nalm6 killed, 22 h co-culture, FACS with counting beads); E/T 0.12; CD19 level very low: 0.4%
Tumor Cell Killing Percentage (Nalm6 killed, 22 h co-culture, FACS with counting beads); E/T 0.6; CD19 level high: 84.4%
Tumor Cell Killing Percentage (Nalm6 killed, 22 h co-culture, FACS with counting beads); E/T 0.6; CD19 level low: 77.2%
Tumor Cell Killing Percentage (Nalm6 killed, 22 h co-culture, FACS with counting beads); E/T 0.6; CD19 level medium: 79.4%
Tumor Cell Killing Percentage (Nalm6 killed, 22 h co-culture, FACS with counting beads); E/T 0.6; CD19 level very low: 8.37%
